# Assay results: article PMC9922296, “Mechanistic insights into RNA surveillance by the canonical poly(A) polymerase Pla1 of the MTREC complex” (Nature Communications, 2023)
# B1: C-terminal RRM domain of Pla1 (Pla1RRM, residues 352-566), purified [S. pombe] / Red1 residues 288-345 (Pla1 interaction region), purified [S. pombe] (parent)
# chain 1: ISLPLLKQDDWLSSSKPFGSSTPNVVIEFDSDDDGDDFSNSKIEQSNLEKPPSNSENG
# chain 2: DFFHRYKHYLTITAAAKTAEAQLKWAGLVESKLRHLVTRLELVDAIALAHPFNKGFDKVYNCSSEEEAQQVASGVTLEVAYESTDHEKLANDTVNEEKADNTESKADGSENGEKQIFPVYTTTCYIGLELEKKKGHPIKRLDISWPTQEFYELCKKWDKYDDTLMNVFIKNTKNTALPDEVFEPGEERPKATKKRSTADTAHSTEQLKRQKVSTA
# Variants of: B1
# Assay: ITC
# Details: with Red1 residues 288-345 (Pla1 interaction region)
row,Kd,Variant
1,17.8 µM,chain 2 DFFHRYKHYLTITAAAETAEAQLKWAGLVESKLRHLVTRLELVDAIALAHPFNKGFDKVYNCSSEEEAQQVASGVTLEVAYESTDHEKLANDTVNEEKADNTESKADGSENGEKQIFPVYTTTCYIGLELEKKKGHPIKRLDISWPTQEFYELCKKWDKYDDTLMNVFIKNTKNTALPDEVFEPGEERPKATKKRSTADTAHSTEQLKRQKVSTA [chain 2 K17E]
2,2.8 µM,chain 2 DFFHRYKHYLTITAAAKTAEAQLKWAGLVESKLRHLVTRLELVDAIALAHPFNKGFDKVYNCSSEEEAQQVASGVTLEVAYESTDHEKLANDTVNEEKADNTESKADGSENGEKQIFPVYTTTCYIGLELEKKKGHPIKRLDISWPTQEFYELCKKWDKYDDTLMNVFIKNTKNTALPDEVFEPGEERPKATKKRSTADTAHSTEQLEEQEVSTA [chain 2 K208E R209E K211E]

# Same assay, conditions: with C-terminal RRM domain of Pla1 (Pla1RRM, residues 352-566)
row,Kd,Variant
1,17.9 µM,chain 1 ISLPLLKQDDWLSSSKPFGSSTPNVRIEFDSDDDGDDFSNSKIEQSNLEKPPSNSENG [chain 1 V26R]
